The values that follow come from patent US20220372125A1 (ASLAN PHARMACEUTICALS PTE, published 2022).

The target of assay [1] is T1, Mammalian expressed extracellular human RON protein (Gly25 to Thr957) with His-tag (human, UniProt Q04912 25-957).
T1 construct: Expressed in ExpiCHO cells, purified on nickel; Position of the His-tag is told inconsistently; Written as one chain; also called RON ECD; RON ECD antigen; not shown: His-tag
T1 sequence: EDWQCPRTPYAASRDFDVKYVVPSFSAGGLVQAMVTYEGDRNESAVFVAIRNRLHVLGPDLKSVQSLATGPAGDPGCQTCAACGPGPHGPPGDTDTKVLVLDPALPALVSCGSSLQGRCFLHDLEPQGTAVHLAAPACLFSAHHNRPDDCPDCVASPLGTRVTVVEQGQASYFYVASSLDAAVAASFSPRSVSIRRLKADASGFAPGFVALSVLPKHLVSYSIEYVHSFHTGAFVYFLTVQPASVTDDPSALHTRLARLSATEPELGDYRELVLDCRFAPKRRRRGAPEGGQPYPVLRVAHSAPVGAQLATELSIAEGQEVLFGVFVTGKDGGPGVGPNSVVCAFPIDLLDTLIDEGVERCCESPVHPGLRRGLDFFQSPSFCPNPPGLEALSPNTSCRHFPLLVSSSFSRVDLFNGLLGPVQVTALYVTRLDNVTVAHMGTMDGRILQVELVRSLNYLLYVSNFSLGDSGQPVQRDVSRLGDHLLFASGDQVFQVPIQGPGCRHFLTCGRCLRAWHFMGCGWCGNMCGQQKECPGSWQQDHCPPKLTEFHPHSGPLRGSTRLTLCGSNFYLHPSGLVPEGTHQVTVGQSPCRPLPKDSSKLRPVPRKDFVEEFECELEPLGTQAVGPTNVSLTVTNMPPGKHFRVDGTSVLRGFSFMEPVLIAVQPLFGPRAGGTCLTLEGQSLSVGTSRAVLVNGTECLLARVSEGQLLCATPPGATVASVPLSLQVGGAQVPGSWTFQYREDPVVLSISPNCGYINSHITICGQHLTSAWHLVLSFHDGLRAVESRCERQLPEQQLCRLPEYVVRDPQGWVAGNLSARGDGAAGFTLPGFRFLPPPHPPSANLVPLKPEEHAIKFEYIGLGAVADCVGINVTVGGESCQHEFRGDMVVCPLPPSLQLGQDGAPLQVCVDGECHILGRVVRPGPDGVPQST
The assay is described as follows: KinExA, RON-HIS; 95% Confidence Level 92.36 pM to 219.67 pM. The procedure:
(§1) Mammalian produced recombinant extracellular His-tag RON protein was used for affinity measurements. Affinity determinations were carried out in the fixed antigen format. Antibodies were titrated as two-fold dilutions into a fixed concentration of RON antigen. RON protein was detected using mouse monoclonal to 6×His-Tag (Dylight@650, Thermo Fisher). All affinity measurements were carried out using the KinExa 4000 (Sapidyne Instruments).
In general terms: In KinExA the mixture passes briefly over coated beads that capture the unbound partner.

Assay [2] has as its target T1, Mammalian expressed extracellular human …. In words: KinExA, RON-HIS.
Assay [3] shares this target. The assay is described as follows: KinExA, apparent Kd, column 'Kd by Kinexa (nM)' [continued]. The procedure: Titration curves were generated using indicated fixed concentrations of extracellular RON antigens measured by calibration free concentration analysis (CFCA). Increasing concentrations of RON antibodies were titrated for measurement of binding. Apparent Kd values were determined from an average of the two curves and plotted in table shown.
(§2) This limitation of the SPR method for highly avid antibodies has been described previously and the use of kinetic exclusion assay has been proposed as a way to overcome this limitation allowing measurements in the sub nanomolar range. We employed the Kinetic Exclusion assay (KinEXa) method to measure the Kd values of all of the new antibodies using a fixed concentration of the recombinant mammalian expressed protein as the target antigen and a twelve-point dilution curve of each antibody. We dropped antibody 9F6, in this assay as it seemed less avid than the other antibodies in preliminary SPR binding assays. The remaining seven antibodies gave exactly accurate results in duplicate analysis (FIG. 6).
as §1

For assay [4] the target is unchanged. The assay is described as follows: KinExA, RON-HIS; 95% Confidence Level 2.30 x 106 to 2.74 x 106.
For assay [5] the target is unchanged. The assay is described as follows: KinExA, RON-HIS; 95% Confidence Level 2.55 x 105 to 2.81 x 105.
Assay [6] has the same target. In words: KinExA, RON-HIS; 95% Confidence Level 5.94 nM to 11.84 nM. As for the experimental part: as §1
Assay [7] has the same target. In words: KinExA, RON-HIS; 95% Confidence Level 8.64 nM to 18.70 nM. As for the experimental part:
as §1

Assay [8] shares this target. The assay is described as follows: KinExA, RON-HIS; 95% Confidence Level 2.68 x 105 to 3.10 x 105.
For assay [9] the target is unchanged. The assay is described as follows: KinExA, RON-HIS; 95% Confidence Level 14.92 pM to 49.11 pM. The procedure: as §1
Assay [10] addresses RON (Macrophage stimulating protein receptor), full length, on cells (human, UniProt Q04912 25-1400). In words: cell-based or functional assay.
The target in assay [11] is T1, Mammalian expressed extracellular human …. In words: KinExA, RON-HIS; 95% Confidence Level 2.52 x 106 to 6.93 x 106.
Assay [12] shares this target. In words: KinExA, fixed antigen format, antibody titrated into fixed RON ECD-His.
Description: as §2, §1

For assay [13] the target is unchanged. The assay is described as follows: KinExA, RON-HIS; 95% Confidence Level 1.05 x 105 to 1.61 x 105.
Assay [14] shares this target. In words: KinExA, RON-HIS; 95% Confidence Level 1.74 nM to 4.11 nM. As for the experimental part: as §1
Assay [15] has the same target. The assay is described as follows: KinExA, RON-HIS; 95% Confidence Level 448.10 pM to 200.01 pM. As for the experimental part:
as §1

For assay [16] the target is unchanged. In words: KinExA, RON-HIS; 95% Confidence Level 2.24 x 106 to 4.45 x 106.
For assay [17] the target is unchanged. In words: KinExA, RON-HIS; 95% Confidence Level 167.21 pM to 304.60 pM. The procedure:
as §1

For assay [18] the target is unchanged. In words: KinExA, RON-HIS; 95% Confidence Level 9.65 x 105 to 1.60 x 106.

B1: 3F8 (antibody, V domains shown)
VH: EVKLQESGGGLVQPGRSLKLSCVASGFTFSSFWMHWVRQSPEKGLEWVAEIRLKSNNYATHYAESVKGRFTISRDDSKSSVHLQMNNLRTEDTGIYYCIPPYYYTVDYWGQGTSVTVSS
VL: DIVLTQTPKVMSTSVGDRVSVTCKASQNVNTNVAWYQQKPGQSPKALIYSASSRYSGVPDRFTGSGSGTDFTLTISNVQSEDLADYFCQQYNTYPLTFAAGTKLELK
notes: Mouse monoclonal antibody from a hybridoma; kappa light chain; also called Antibody 3F8; anti-RON antibody 3F8
Turning to B1, the Kd in assay [1] stood at 0.146 nM; in assay [3], 0.15 nM. The koff in [2] came out at 0.000358 s⁻¹. The kon in assay [4] worked out at 2.44e+06 M⁻¹ s⁻¹.

B2: 6A9 (antibody, V domains shown)
VH: EVKLEESGPGLLKPSQSLSLTCTVTGSSITSDYAWNWIRQFPGNKLEWMGYIGYSVGTSHNPSLKGRISITRDTSKNQFFLHLNSVTTEDTAIYYCARRPLYFYYAMDFWGQGTSVTVSS
VL: DIVLTQSPSSLSASLGDRVTITCRASQDISKYLNWYQQKPDGTVKLLIYYTSTLHSGVPSRFSGSGSGTDFSLTITNLEQEDIATYFCQQGNTLPRTFGGGTKLEIK
notes: Mouse monoclonal antibody from a hybridoma; kappa light chain; also called Antibody 6A9; anti-RON antibody 6A9
B2 gave a kon in assay [5] of 266000 M⁻¹ s⁻¹. Also, the Kd in [6] stood at 8.57 nM; in assay [3], 8.6 nM. In assay [2], this molecule showed a koff of 0.00228 s⁻¹.

B3: 3F6 (antibody, V domains shown)
VH: EVKLEESGPGLVKPSQSLSLTCSVTGYSITSGYYWNWIRQFPGNKLEWMGFMSYDGSNNYNPSLKNRISITRDTSKNQFFLKLNSVTSEDTATYYCSRALAYYGNFDYWGQGTTLTVSS
VL: DIVLTQTPSSLSASLGDRVTISCSASQDISNYLNWYQQKPDGIVKLLIYYTSSLHSGVPSRFSGSGSGTDFSLTISNLEPEDIATYYCQQYNKLPWTFGGGTKLEIK
notes: Mouse monoclonal antibody from a hybridoma; kappa light chain; also called anti-RON antibody 3F6
Consider B3, for which the Kd in [7] and in assay [3] was 13.4 nM in each case. Also, the kon in [8] stood at 270000 M⁻¹ s⁻¹.

B4: 10G1 (antibody, V domains shown)
VH: EVKLEQSGGGLVQPGGSRKLSCAASGFTFSSFGMHWVRQAPEKGLEWVAYISGGSGTFYYADTVKGRFTISRDNPKNTLFLQMTSLRSEDTAIYYCARSTTVLDYWGQGTTLTVSS
VL: DIVLTQTPSSMYAFLGERVTIICKASQDINNYLNWVQQKPGKAPKTLIYHADRLADGVPSRFSGSGSGQDYSLTISSLEYEDMGIYYCLQYDDFPPFTFGSGTKLEIK
notes: Mouse monoclonal antibody from a hybridoma; kappa light chain; also called Antibody 10G1; anti-RON antibody 10G1
As for B4, the Kd in [9] came out at 0.0294 nM; in [12], 0.029 nM. Besides, the “IC50 of inhibition of MSP induced ERK phosphorylation (AlphaLISA SureFire p-ERK, T47D cells)” value in assay [10] is 2.8 nM. The molecule also returned a koff in [2] of 0.000121 s⁻¹. The same molecule gave a kon in assay [11] of 4.12e+06 M⁻¹ s⁻¹.

B5: 9F2 (antibody, V domains shown)
VH: QVKLQQSGPGLVAPSQSLSITCTVSGFSLTSYGVHWVRQPPGKGLEWLGVIWAGGTTNYNSALMSRLSISKDNSKSQVFLKMNSLQTDDTAMYYCASYDYDGYFDVWGAGTTVTVSS
VL: DIVLTQTTAIMSASPGEKVTMTCSASSSVSYIHWYQQKSSTSPKLWIYDTSKLASGVPGRFSGSGSGNSYSLTISSMEAEDVATYYCFQGNKYPLTFGAGTKLELK
notes: Mouse monoclonal antibody from a hybridoma; kappa light chain; also called Antibody 9F2; anti-RON antibody 9F2
In turn, B5 came in with a kon in assay [13] of 129000 M⁻¹ s⁻¹. This molecule registered a koff in [2] of 0.00353 s⁻¹. In addition, the Kd in [3] is 2.7 nM; in assay [14], 2.74 nM.

B6: 3G4 (antibody, V domains shown)
VH: EVQLQESGPELVKPGTSVRISCKASGYTFTSYYMHWVKQRPGQGLEWIGYIYPGNVNTKYNEKFKGKATLTADKSSSTAYMQLSSLTSEDSAVYFCARLGYYRYGGAMDYWGQGTAVTVSS
VL: DIVLTQTPAILSVSPGERVSFSCRASQSIGTSIHWYQQRTNGSPRLLIKYASESISGIPSRFSGSGSGTDFTLRINSVESEDLADYYCQQSDSWPTTFGGGTKLEIKR
notes: Mouse monoclonal antibody from a hybridoma (supernatant or purified); kappa light chain; also called Antibody 3G4; anti-RON antibody 3G4
Turning to B6, the “IC50 of inhibition of MSP induced ERK phosphorylation (AlphaLISA SureFire p-ERK, T47D cells)” value in assay [10] stood at 68 nM. The same molecule registered a koff in [2] of 0.000968 s⁻¹. Further, the values for the Kd in assay [15] and in assay [3] were 0.305 nM and 0.3 nM, respectively. In assay [16], this molecule returned a kon of 3.18e+06 M⁻¹ s⁻¹.

B7: 7H11 (antibody, V domains shown)
VH: EVKLEQSGPELVKPGASVKISCKASGYTFTDYNMHWVRQPPGQSLEWIGFIYPYNGNSGYNPNFKTKATLTMDISSSTAYMEVRNLTSEDSATYFCASLYYLGYFDVWGAGTTVTVSS
VL: DIVLTQSPVSLAVSLGQRATISCRASKSVSTSAYNFMHWYQQKPGQPPKLLIYLASNLESGVPARLSGSGSGTDFTLNIHPVEEEDAATYYCQHSRELPYTFGGGTKLEIKR
notes: Mouse monoclonal antibody from a hybridoma; kappa light chain; also called Antibody 7H11; anti-RON antibody 7H11
Take B7: the Kd in assay [17] and in assay [3] was 0.23 nM throughout. Also, the koff in assay [2] is 0.000286 s⁻¹. In assay [18], the kon was 1.25e+06 M⁻¹ s⁻¹.

Usually koff stands for the first-order rate constant of dissociation. As usually defined, the kon is a measure of how fast the partners come together. Read a high kon as faster complex formation.
